According to patent US20140343256A1 (TECHNISCHE UNIVERSITAT MUNCHEN, published 2014):
Ends that are not written are not given here. * marks the point of attachment. Palmitoyl = CCCCCCCCCCCCCCCC(=O)*

What was measured:
[1] = biological target: T1, N-palmitoyl-S-(2,3-bis(palmitoyloxy)-(2R,S)-propyl)-(R)-cysteinyl-seryl-(lysyl)-3-lysine; assay: SPR, antibody alone over immobilised P3CSK4
T1 construct: Synthetic bacterial lipopeptide analogue and TLR2 agonist, immobilised on the SPR chip; also called P3CSK4; tripalmitoyl-cysteinyl-seryl-(lysyl)3-lysine
T1 peptide: Palmitoyl-C(2,3‑bis(palmitoyloxy)‑(2R,S)‑propyl)SKKKK

[2] = biological target: recombinant TLR2ECD-Fc fusion protein (human IgGFc fused mouse TLR2ECD protein) (murine; human) (UniProt Q9QUN7); assay: SPR competition: T2EC pre-incubated with T2.5, binding to immobilised P3CSK4
Sequence of recombinant TLR2ECD-Fc fusion protein (human IgGFc fused mouse TLR2ECD protein) (murine; human) (Q9QUN7 25-587 limits assumed, form in doubt): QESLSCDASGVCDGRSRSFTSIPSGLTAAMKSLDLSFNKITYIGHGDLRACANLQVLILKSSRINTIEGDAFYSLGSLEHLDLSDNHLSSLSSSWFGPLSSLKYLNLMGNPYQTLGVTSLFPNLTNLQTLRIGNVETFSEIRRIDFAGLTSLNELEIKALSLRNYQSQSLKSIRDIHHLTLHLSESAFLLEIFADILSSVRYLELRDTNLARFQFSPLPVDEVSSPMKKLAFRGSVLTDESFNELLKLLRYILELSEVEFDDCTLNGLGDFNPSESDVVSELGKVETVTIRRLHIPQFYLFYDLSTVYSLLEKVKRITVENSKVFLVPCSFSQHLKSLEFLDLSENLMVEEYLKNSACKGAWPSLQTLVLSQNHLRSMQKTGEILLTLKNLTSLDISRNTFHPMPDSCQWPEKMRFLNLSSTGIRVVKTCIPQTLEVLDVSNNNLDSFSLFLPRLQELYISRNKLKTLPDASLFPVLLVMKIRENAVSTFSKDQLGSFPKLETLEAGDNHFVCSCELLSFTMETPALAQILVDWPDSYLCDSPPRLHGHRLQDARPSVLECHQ

B1: murine monoclonal antibody T2.5 (antibody, V domains shown)
VH: QVQLQQSGPELVNPGASVKLSCKASGFTFTTYGINWVKQGPGQGLEWIGWIYPRDGSTNFNENFKDKAALTVDTSSSTAYMELHSLTSEDSAVYFCARLTGGTFLDYWGQGTTLTVSS
VL: DIVLTQSPASLAVSLGQRATISCRASESVEYYGTSLMQWYQQKPGQPPKLLIFGASNVESGVPVRFSGSGSGTDFSLNIHPVEEDDIVMYFCQQSRKLPWTFGGGTKLEIKR
notes: also called mAb T2.5; native T2.5
binding result [1]: no binding
molar excess of T2.5 over T2EC that abrogated the T2EC-P3CSK4 interaction (fold molar excess) [2]: 10
molar ratio (T2.5:T2ECD) required to reduce binding to 50% (molar ratio (T2.5:T2ECD)) [2]: 3.3
